Results taken from US10385103B2, “Cell-permeable (ICP)-SOCS3 recombinant protein and uses thereof” (CELLIVERY THERAPEUTICS, INC., priority 2014, dated 2019).
“Also recorded” adds a separate entry of the source.

Tests used:
[1] = tested on: TNF-α; assay: LPS/IFN-γ-induced cytokine secretion in peritoneal macrophages (cytometric bead array), TNF-α; type: cell-based, C3H/HeJ mice; conditions: 10 μM protein; IFN-γ and LPS
Method: Peritoneal macrophages were obtained from C3H/HeJ mice (Doo-Yeol Biotech Co. Ltd. Korea) Peritoneal macrophages were incubated with 10 μM SOCS3 recombinant proteins (1:HS3, 2:HM165S3, 3:HM165S3A and 4:HM165S3B, respectively) for 1 hr at 37° C. and then stimulated them with LPS (Lipopolysaccharide)(500 ng/ml) and/or IFN-γ (100 U/ml) without removing iCP-SOCS3 proteins for 3, 6, or 9 hrs. The culture media were collected, and the extracellular levels of cytokine (TNF-α, IL-6) were measured by a cytometric bead array (BD Pharmingen, San Diego, Calif., USA) according to the manufacturer's instructions.

[2] = tested on: HepG2 cells; assay: Invasion assay (matrigel-coated Transwell); type: cell-based, human; conditions: 24 hrs, compared with the control proteins
Method: The lower surface of Transwell inserts (Costar) was coated with 0.1% gelatin, the upper surface of Transwell inserts was coated with matrigel (40 μg per well; BD Pharmingen, San Diego, Calif., USA), and the membranes were allowed to dry for 1 hr at room temperature. The Transwell inserts were assembled into a 24-well plate, and the lower chamber was filled with growth media containing 10% FBS and FGF2 (40 ng/ml). Cells (5×10^5) were added to each upper chamber, and the plate was incubated at 37° C. in a 5% CO2 incubator for 24 hrs. Migrated cells were stained with 0.6% hematoxylin and 0.5% eosin and counted.

[3] = tested on: HepG2 cells; assay: Transwell migration assay; type: cell-based, human; conditions: 24 hrs, compared with vehicle and non-permeable SOCS3
Method: (§1) The lower surface of Transwell inserts (Costar) was coated with 0.1% gelatin, and the membranes were allowed to dry for 1 hr at room temperature. The Transwell inserts were assembled into a 24-well plate, and the lower chamber was filled with growth media containing 10% FBS and FGF2 (40 ng/ml). Cells were added to each upper chamber at a density of 5×10^5, and the plate was incubated at 37° C. in a 5% CO2 incubator for 24 hrs. Migrated cells were stained with 0.6% hematoxylin and 0.5% eosin and counted.

[4] = tested on: Huh-7 cells; assay: Transwell migration assay; type: cell-based, human; conditions: 24 hrs, compared with vehicle and non-permeable SOCS3
Method: as §1

[5] = tested on: SK-Hep-1 cells; assay: Transwell migration assay; type: cell-based, human; conditions: 24 hrs, compared with vehicle and non-permeable SOCS3
Method: as §1

[6] = tested on: Hep3B cells; assay: Induction of apoptosis, Annexin V/7-AAD staining; type: cell-based, human; conditions: example 20-2
Method: (§2) AGS cells (gastric carcinoma cell line) (American Type Culture Collection; ATCC) were seeded in a 12-well plate at a density of 1×10^5 cells/well, and then treated with 10 uM of aMTD/SD-fused SOCS3 for 14 hours. Cancer cell death was analyzed by Annexin V analysis. Annexin V/7-Aminoactinomycin D (7-AAD) staining was performed using flow cytometry according to the manufacturer's guidelines (BD Pharmingen, San Diego, Calif., USA). Briefly, cells were washed three times with ice-cold PBS. The cells were then resuspended in 100 μl of binding buffer and incubated with 1 μl of 7-AAD and 1 μl of annexin V-PE for 30 min in the dark at 37° C. Flow cytometric analysis was immediately performed using a guava easyCyte™ 8 Instrument (Merck Millipore, Darmstadt, Germany).
(§3) The effect of inducing apoptosis of Chang liver cells was measured in the same manner as in Example 11-2, except that as target cell lines, normal Chang liver cells and hepatocellular carcinoma cell lines, Hep3B, HepG2, Huh7, and SK-HEP-1 were used, and as a reference drug, 5-FU® (IC50: 40 μM) was used.

[7] = tested on: SK-Hep-1 cells; assay: Induction of apoptosis, Annexin V/7-AAD staining; type: cell-based, human; conditions: example 20-2
Method: as §2, §3

[8] = tested on: normal Chang liver cells; assay: Induction of apoptosis, Annexin V/7-AAD staining; type: cell-based, human; conditions: example 20-2
Method: as §2, §3

[9] = tested on: Huh7 cells; assay: Induction of apoptosis, Annexin V/7-AAD staining; type: cell-based, human; conditions: example 20-2
Method: as §2, §3

[10] = tested on: HCCs (Hep3B, HepG2, Huh7 and SK-HEP-1); assay: Inhibition of cell cycle progression (PI staining, flow cytometry); type: cell-based, human; conditions: 10 uM, 8 hrs
Method: To further determine the effect of iCP-SOCS3 on the tumorigenicity of hepatocellular carcinoma cells, we subsequently investigated whether iCP-SOCS3 regulates cell cycle progression in HCCs (Hep3B, HepG2, Huh7 and SK-HEP-1).
HCCs and normal cells were treated with 10 uM protein (Non-CP-SOCS3 (HS3B) and iCP-SOSC3 (HM165S3B)) for 8 hrs. After the treatment, cells were washed twice with cold PBS and re-suspended in 1 ml cold PBS, fixed in cold 70% ethanol, washed with cold PBS twice and re-suspended in PI master mix (PI 10 ug/ml (SIGMA, USA), 50 ug/ml RNase A (Invitrogen, USA) in staining buffer) at a final cell density of 2×10^5 cell/ml. The cell mixtures were incubated 30 min in the dark at 4° C. Flow cytometric analysis was immediately performed using a guava easyCyte™ 8 Instrument (Merck Millipore, Darmstadt, Germany).

[11] = tested on: AGS cells; assay: Induction of apoptosis by Annexin V/7-AAD staining in gastric carcinoma cells; type: cell-based; conditions: 10 uM, 14 hours
Method: as §2

[12] = tested on: HepG2 tumor; assay: Anti-tumor activity in cell-derived xenograft model; conditions: for inhibition on the tumor size: observation 3 weeks
Method: Female Balb/c^nu/nu mice (5-week-old, Doo-Yeol Biotech Co. Ltd. Korea) were subcutaneously implanted with Hep3B2.1-7 tumor block (1 mm^3) into the left back side of the mouse. […] Tumor size was monitored by measuring the longest (length) and shortest dimensions (width) once a day with a dial caliper, and tumor volume was calculated as width2×length×0.5.
Then, tumor volumes were examined. […] Then, tumor volumes were examined.

B1: HM165S3B: His-tagged recombinant protein of aMTD165, human SOCS3 and solubilization domain B; prototype improved cell-permeable SOCS3 (protein)
chain: MGSSHHHHHHSSGLVPRGSHMALAVPVALAIVPVTHSKFPAAGMETSRPLDTSLRLKTFSSKSEYQLVVNAVRKLQESGFYWSAVTGGEANLLLSAEPAGTFLIRDSSDQRHFFTLSVKTQSGTKNLRIQCEGGSFSLQSDPRSTQPVPRFDCVLKLVHHYMETPPPGAPSFPSPPTEPSSEVPEQPSAQPLPGSPPRRAYYIYSGGEKIPLVLSRPLSSNVATLQHLCRKTVNGHLDSYEKVTQLPGPIREFLDQYDAPLGSMAEQSDKDVKYYTLEEIQKHKDSKSTWVILHHKVYDLTKFLEEHPGGEEVLGEQAGGDATENFEDVGHSTDARELSKTYIIGELHPDDRSKIAKPSETL
modifications: Amino acid sequence of HM165S3B
effect on TNF-α secretion [1]: showed the greatest inhibitory effect on cytokine secretion
invasion, HepG2 [2]: remarkable decrease in invasion
Transwell migration, HepG2 [3]: significant inhibitory effect on their Transwell migration
Transwell migration, Huh-7 [4]: significant inhibitory effect on their Transwell migration
Transwell migration, SK-Hep-1 [5]: significant inhibitory effect on their Transwell migration
induction of apoptosis (Annexin V), Hep3B [6]: considerably efficient inducer of apoptosis
induction of apoptosis (Annexin V), SK-HEP-1 [7]: considerably efficient inducer of apoptosis
induction of apoptosis (Annexin V), normal Chang liver cells [8]: dose not induced apoptosis in normal cells
induction of apoptosis (Annexin V), Huh7 [9]: considerably efficient inducer of apoptosis
cell cycle progression in HCCs [10]: efficiently inhibited cell cycle progression
induction of apoptosis (Annexin V) [11]: showed high anticancer efficacy; also recorded: effects of inducing apoptosis
induction of apoptosis (Annexin V) ([11]; listed as aMTD165-fused SOCS3 recombinant protein): induced death of the largest number of cancer cells
tumor growth inhibition at day 42 ([12]; IV 600 μg/head for 21 days, 3 weeks after termination): 67%
inhibition on the tumor size ([12]; IV 25 mg/kg every day for 3 weeks): 60%
inhibition on the tumor size ([12]; IV 50 mg/kg every day for 3 weeks): 76%
inhibition on the tumor size ([12]; IV 50 mg/kg three times a week for 3 weeks): 66%
